Experimental data published in US11278600B2, “Human alpha-galactosidase variants” (Codexis, Inc., priority 2014, dated 2022).

Key:
Assay type in all cases: biochemical
[1] = HTP-analysis of supernatants pretreated with base (MUGal hydrolysis); conditions: activity of the variant/activity of Rd3BB (SEQ ID NO: 13); challenge at pH 9.7
In short: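 GLA variants secreted from yeast INVSc1; culture supernatants pre-incubated with McIlvaine buffer pH 7.0–8.2 or 200 mM bicarbonate pH 9.1–9.7 at 37° C. for 1–18 h. Residual activity: MUGal (4 mM stock) hydrolysis at pH 4.3–4.8, 37° C., 30–180 min, carbonate quench; fluorescence Ex 355/Em 448 nm.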

[2] = HTP-analysis of supernatants pretreated with acid (MUGal hydrolysis); conditions: activity of the variant/activity of Rd3BB (SEQ ID NO: 13); challenge at pH 3.7
In short: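 Fluorescence of MUGal hydrolysis (Ex. 355 nm, Em. 448 nm) is read after sodium carbonate quench. The enzyme source is INVSc1 yeast culture supernatant, first exposed to pH 3.3-4.3 McIlvaine buffer at 37° C. for 1-3 h, then reacted at pH 4.8 for 30-180 minutes.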

[3] = HTP-analysis of yeast culture supernatants, no challenge (MUGal hydrolysis); conditions: activity of the variant/activity of Rd3BB (SEQ ID NO: 13)
In short: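 GLA variants expressed in yeast INVSc1, secreted into SD-Ura broth over 66-84 h at 30° C; clarified supernatants tested without challenge. Supernatant mixed with McIlvaine buffer pH 4.8 and 2 mM MUGal (citrate/KCl, pH 4.6), 37° C for 30-180 min, carbonate-quenched, fluorescence Ex 355/Em 448 nm.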

Row | Molecule | Relative Activity of GLA Variants After Challenge at pH 9.7 [1] | Relative Activity of GLA Variants After Challenge at pH 3.7 [2] | Relative Activity of GLA Variants After No Challenge (NC) [3]
1 | 606 (protein, Synthetic Polypeptide sequence of Variant No. 606 of mature Human GLA) LDNGLARTPPMGWLHWERFMCNLDCQEEPDSCISEKLFMEMAERMVSEGWKDAGYEYLCIDDCWMAPQRDSEGRLQADPQRFPHGIRQLANHVHSKGLKLGIYADVGNKTCAGFPGSFGYYDIDAQTFADWGVDLLKFDGCYCDSLENLADGYKHMSLALNRTGRSIVYSCEWPLYMWPFQKPNYTEILQYCNHWRNFADIDDSWASIKSILDWTSRNQERIVDVAGPGGWNDPDMLVIGNFGLSWDQQVTQMALWAIMAAPLFMSNDLRHISPQAKALLQDKDVIAINQDPLGKQGYQLRKGDNFEVWERPLSGDAWAVAIINRQEIGGPRSYTIPVASLGKGVACNPACFITQLLPVKRQLGFYNWTSRLKSHINPTGTVLLQLENTMQMSLKDLL | ++ (++ = >5 to 10 relative activity over Rd3BB (SEQ ID NO: 13)) | +++ (+++ = >10 relative activity over Rd3BB (SEQ ID NO: 13)) | + (+ = 1.5 to 5 relative activity over Rd3BB (SEQ ID NO: 13))
2 | 607 (protein, Synthetic Polypeptide sequence of Variant No. 607 of mature Human GLA) LDNGLARLPTMGWLHWERFMCNLDCQEEPDSCISEKLFMEMAERMVSEGWKDAGYEYLCIDDCWMAPQRDSEGRLQADPQRFPHGIRQLANHVHSKGLKLGIYADVGNKTCAGFPGSFGYYDIDAQTFADWGVDLLKFDGCYCDSLENLADGYKHMSLALNRTGRSIVYSCEWPLYMWPFQKPNYTEIRQYCNHWRNFADIDDSWASIKSILDWTSRNQERIVDVAGPGGWNDPDMLVIGNFGLSWDQQVTQMALWAIMAAPLFMSNDLRHISPQAKALLQDKDVIAINQDPLGKQGYQLRKGDNFEVWERPLSGDAWAVAIINRQEIGGPRSYTIPVASLGKGVACNPACFITQLLPVKRQLGFYNWTSRLKSHINPTGTVLLQLENTMQMSLKDLL | ++ (++ = >5 to 10 relative activity over Rd3BB (SEQ ID NO: 13)) | + (+ = 1.5 to 5 relative activity over Rd3BB (SEQ ID NO: 13)) | + (+ = 1.5 to 5 relative activity over Rd3BB (SEQ ID NO: 13))
3 | 608 (protein, Synthetic Polypeptide sequence of Variant No. 608 of mature Human GLA) LDNGLARQPTMGWLHWERFMCNLDCQEEPDSCISEKLFMEMAERMVSEGWKDAGYEYLCIDDCWMAPQRDSEGRLQADPQRFPHGIRQLANHVHSKGLKLGIYADVGNKTCAGFPGSFGYYDIDAQTFADWGVDLLKFDGCYCDSLENLADGYKHMSLALNRTGRSIVYSCEWPLYMWPFQKPNYTEIRQYCNHWRNFADIDDSWASIKSILDWTSRNQERIVDVAGPGGWNDPDMLVIGNFGLSWDQQVTQMALWAIMAAPLFMSNDLRHISPQAKALLQDKDVIAINQDPLGKQGYQLRKGDNFEVWERPLSGDAWAVAIINRQEIGGPRSYTIPVASLGKGVACNPACFITQLLPVKRQLGFYNWTSRLKSHINPTGTVLLQLENTMQMSLKDLL | + (+ = 1.5 to 5 relative activity over Rd3BB (SEQ ID NO: 13)) | + (+ = 1.5 to 5 relative activity over Rd3BB (SEQ ID NO: 13)) | + (+ = 1.5 to 5 relative activity over Rd3BB (SEQ ID NO: 13))
